Patent CN106432498A (UNIV ANHUI, dated 2017)

Tests used:
[1] = target: 人尿激酶型纤溶酶原激活物受体 (human uPAR) on SW480 cells (human) (UniProt Q03405); test: flow cytometry on SW480 cells, antibody at 5 μg/ml, FITC goat anti-human IgG
[2] = target: T1, 重组人uPAR蛋白 (recombinant human uPAR protein, uPAR-ECD) (human, UniProt Q03405 23-303, limits assumed); test: BLI (Fortebio), antibody captured on anti-human IgG Fc sensor, uPAR-ECD at 0.25-1 μM
T1 construct: extracellular domain; Bought reagent
T1 sequence (Q03405 23-303 limits assumed): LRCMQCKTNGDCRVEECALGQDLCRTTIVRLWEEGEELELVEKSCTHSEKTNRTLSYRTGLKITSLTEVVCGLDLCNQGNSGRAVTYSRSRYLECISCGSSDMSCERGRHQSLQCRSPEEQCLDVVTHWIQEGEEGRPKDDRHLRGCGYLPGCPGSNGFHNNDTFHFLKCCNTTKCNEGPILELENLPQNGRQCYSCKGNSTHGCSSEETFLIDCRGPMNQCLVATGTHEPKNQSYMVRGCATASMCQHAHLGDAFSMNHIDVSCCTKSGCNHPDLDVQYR

Row | 平均荧光强度 [1] | 阳性率 [1] [%] | Kd [2] [nM] | koff [2] [s⁻¹] | kon [2] [M⁻¹ s⁻¹] | Binder
1 | 4.44 | 99.6 | 6.32 | 0.000454 | 71800 | H2BL2抗体 (humanized anti-uPAR antibody H2BL2) (antibody, human IgG1, kappa, V domains shown, also called H2BL2溶液) VH: EVQLVQSGAEVKKPGSSVKVSCKASGYTFTDYYIHWVRQAPGQGLEWIGWIFHGSDNTEYNEKFKSKATITADESTSTAYMELSSLRSEDTAVFYCARWGPHWYFDAWGRGTLVTVSS VL: DIQMTQSPSTLSASVGDRVTITCRASSSVSYIHWYQQKPGRAPKPLMYEASSRATGVPSRFSGSGSGTEYTLTISSLQSDDFATYYCQQWNYPFTFGQGTKLEIKR
2 |  |  | 7.45 | 0.000576 | 77300 | ATN615抗体 (monoclonal antibody targeting uPAR) (antibody, V domains shown, Made in the same way as H2BL2 (293F cells, protein A); also called ATN615溶液) VH: GVKLQQSGPEVVKPGASVKISCKASGYSFTNFYIHWVKQRPGQGLEWIGWIFHGSDNTEYNEKFKDKATLTADTSSSTAYMQLSSLTSEDSAVYFCARWGPHWYFDVWGQGTTVTVSS VL: DIVLTQSPDITAASLGQKVTITCSASSSVSYMHWYQQKSGTSPKPWIFEISKLASGVPARFSGSGSGTSYSLTISSMEAEDAAIYYCQQWNYPFTFGGGTKLEIKR
